{"source": "paper PMC2923024", "test_system": "hnRNP A1, P09651-2", "assay": "footprinting", "data": [{"sequence": "GGAUGUUCUCUUCACUGUGGGAUGAGGUAGUAGGUUGUAUAGUUUUACCCUCACACCCACCACUGGGAGAUAACUAUACAAUCUACUGUCUUUCCUAACGUGAUAGAAAAGUCUGCA [pri-let-7a-1 GGG/CCC]", "values": [{"measurement": "binding", "value": "no binding"}]}]}
